Measured values: patent publication US20250361305A1 (ORIONIS BIOSCIENCES, published 2025)

Legend:
[1] = target: T1, PD-1 antigen (ELISA of Example 2) (human, UniProt Q15116 25-167, limits assumed); assay: ELISA, signal on PD-1 antigen over control
[2] = target: T1, PD-1 antigen (ELISA of Example 2); assay: ELISA, signal on PD-1 antigen; further: test concentration or dose not given here
[3] = target: T2, recombinant extracellular domain of PD-L1 with C-terminal FLAG-tag (human, UniProt Q9NZQ7 19-238); assay: plate binding assay, VHH against hPD-1-hFc binding to immobilised PD-L1 ECD-FLAG
T2 construct: extracellular domain; The sentence itself names no species; Immobilised through the M2 anti-FLAG antibody; not shown: C-terminal FLAG-tag

[4] = target: T3, human PD-L1-Fc (SinoBiological) (human, UniProt Q9NZQ7 19-239); assay: BLI (Octet RED96), VHH on Penta-HIS sensor, human PD-L1-Fc in solution
T3 construct: Bought; not shown: Fc of a bought fusion protein

[5] = target: T4, cynomolgus PD-L1-Fc (SinoBiological) (cynomolgus, UniProt G7PSE7 19-238); assay: BLI (Octet RED96), VHH on Penta-HIS sensor, cynomolgus PD-L1-Fc in solution
T4 construct: Bought; also called Cyno PD-L1; not shown: Fc carrier (and any linker) of the bought SinoBiological fusion
T4 sequence (G7PSE7 entry or part of it limits assumed): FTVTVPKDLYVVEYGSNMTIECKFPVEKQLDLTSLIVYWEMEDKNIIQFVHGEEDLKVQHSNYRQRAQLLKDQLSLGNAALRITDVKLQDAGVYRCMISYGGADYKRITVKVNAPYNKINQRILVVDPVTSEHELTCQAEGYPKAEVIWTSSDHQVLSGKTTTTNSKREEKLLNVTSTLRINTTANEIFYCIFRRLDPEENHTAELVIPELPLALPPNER

T2 sequence (Q9NZQ7 19-238): as the sequence (G7PSE7 entry or part of it limits assumed) above, with T33A, S34A, N62S, Q68R, R82Q, L173F, A185T, I192T, L215H counted along it
T3 sequence (Q9NZQ7 19-239 limits assumed): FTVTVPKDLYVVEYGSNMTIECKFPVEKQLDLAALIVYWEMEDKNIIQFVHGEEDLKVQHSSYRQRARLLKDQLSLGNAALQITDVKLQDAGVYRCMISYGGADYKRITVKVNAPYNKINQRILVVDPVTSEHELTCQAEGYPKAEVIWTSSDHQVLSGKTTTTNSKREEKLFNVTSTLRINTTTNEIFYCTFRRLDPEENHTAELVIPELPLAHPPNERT
T1 sequence (Q15116 25-167 limits assumed): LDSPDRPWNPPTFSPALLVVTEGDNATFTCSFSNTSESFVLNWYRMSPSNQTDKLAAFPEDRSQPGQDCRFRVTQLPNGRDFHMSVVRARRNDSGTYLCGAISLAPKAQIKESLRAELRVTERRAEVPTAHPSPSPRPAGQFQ

Binder | A/control [1] | ELISA A [2] | IC50 [3] | Kd [4] | koff [4] | kon [4] | Kd [5] | koff [5] | kon [5]
2PD-12 (VHH, PD-1 VHH) VHH: QVQLQESGGGLVQAGGSLRLSCAVSGFILDYYGIGWFRQAPGKEREAVSCISSSDGSTYYADSVKGRFTISRDNALNTLYLQMNSLKPEDTAVYHCATATLCDGGIWGYWGQGTQVTVSS | 21.5 | 3.81 |  |  |  |  |  |  | 
2PD23 (VHH, PD-1 VHH) VHH: QVQLQESGGGLVQPGGSLRLSCAASGFSMDYYAIAWFRQAPGKEREEISCITGSDFMVDTYYVASVKGRFTISRDNAENTAYLQMNNLKPEDTGVYFCAVRSTANTLCPSHYSVMDYWGKGTQVTVSS | 4.56 | 0.94 |  |  |  |  |  |  | 
2LIG27 VHH-(His)6 (pHEN6C-PelB-PD-L1 VHH-(His)6) (VHH) VHH: QVQLQESGGGVVQAGGSLRLSCTASGTIFSINRMDWFRQAPGKQRELVALITSDGTPTYADSAKGRFTISRDNTKKTVSLQMNSLKPEDTAVYYCHVSSGVYNYWGQGTQVTVSS |  |  | 9.57 ng/mL | 7.51 nM | 0.0035 s⁻¹ | 472000 M⁻¹ s⁻¹ | 8.74 nM | 0.0028 s⁻¹ | 321000 M⁻¹ s⁻¹
2LIG97 VHH-(His)6 (pHEN6C-PelB-PD-L1 VHH-(His)6) (VHH) VHH: QVQLQESGGGLVQAGESLRLSCTASGTIFSINRMDWFRQAPGKQRELVALITSDGTPTYADSAKGRFTISRDNTKKTVSLQMNSLKPEDTAVYYCHVSSGVYNYWGQGTQVTVSS |  |  | 4.81 ng/mL | 4.35 nM | 0.00198 s⁻¹ | 423000 M⁻¹ s⁻¹ | 9.16 nM | 0.00293 s⁻¹ | 319000 M⁻¹ s⁻¹
2LIG3 VHH-(His)6 (pHEN6C-PelB-PD-L1 VHH-(His)6) (VHH) VHH: QVQLQESGGGLVQAGGSLRLSCTASGTIFSINHMDWFRQAPGKQRELVALITSDGFPTYADSAKGRFTISRDNTKKTVSLQMNSLKPEDTAVYYCHVSSGVYNYWGQGTQVTVSS |  |  | 18.9 ng/mL | 1.19 nM | 0.000448 s⁻¹ | 373000 M⁻¹ s⁻¹ | 0.89 nM | 0.000318 s⁻¹ | 358000 M⁻¹ s⁻¹
2LIG99 VHH-(His)6 (pHEN6C-PelB-PD-L1 VHH-(His)6) (VHH) VHH: QVQLQESGGGLVQAGGSLRLSCTASGTIFSINRMDWFRQAPGKQRELVALITSDGTPAYADSAKGRFTISRDNTKKTVSLQMNSLKPEDTAVYYCHVSSGVYNYWGQGTQVTVSS |  |  | 6.21 ng/mL | 0.875 nM | 0.000634 s⁻¹ | 729000 M⁻¹ s⁻¹ | 1.01 nM | 0.000585 s⁻¹ | 584000 M⁻¹ s⁻¹
2PD8 (VHH, PD-1 VHH) VHH: QVQLQESGGGSVQAGDSLRLSCTASGRTFSSLGMGWFRQAPGKEREFVSAIAWNGASTYYTESVKGRFTISRDDAKNTVYLQMNSLKPTDTAVYFCAASGLGSVVVTANEYDYWGQGTQVTVSS | 3.03 | 0.763 |  |  |  |  |  |  | 
2PD-16 (VHH, PD-1 VHH) VHH: QVQLQESGGGLVQAGGSLRLSCAASGGFNRVSYMGWYRQAPGTKRELVASVTSGGEITIADSVKGRFTVSRDNSKNTLYLQMNGLKPEDGATYWCNADIWVSDARMYNYWGQGTQVTVSS | 3.84 | 1.83 |  |  |  |  |  |  | 

Second part, the binder after the results:

A/control [1] | ELISA A [2] | IC50 [3] | Kd [4] | koff [4] | kon [4] | Kd [5] | koff [5] | kon [5] | Binder
40.4 | 3.58 |  |  |  |  |  |  |  | 3PD55 (VHH, PD-1 VHH) VHH: QVQLQESGGGLAQAGGSLRLSCEGSGLSLDYDGVGWFRQAPGKEREAVSCISSSDGSTYYADSVKGRFTISRGNALNTLYLQMNSLKPEDTAVYYCATATLCDGGIWGYWGQGTQVTVSS
45.1 | 4 |  |  |  |  |  |  |  | 3PD82 (VHH, PD-1 VHH) VHH: QVQLQESGGGSVQPGGSLRLSCAVSGFILDYYGIGWFRQAPGKEREAVSCISSSDGSTYYADSVKGRFTISRDNALNTLYLQMNSLKPEDTAVYYCATATLCDGGIWGYWGQGTQVTVSS
6.38 | 2.31 |  |  |  |  |  |  |  | 2PD-152 (VHH, PD-1 VHH) VHH: QVQLQESGGGLVQTGESLRLSCAASGIIKSINFMGWYRQPPGTKRELVASTTSDGRTTVADSVKGRFTISRDNAKNTIYLEMSSLKPEDTATYWCNADIWLPSDRMYNYWGQGTQVTVSS
 |  | 5.68 ng/mL | 6.87 nM | 0.00805 s⁻¹ | 1.18e+06 M⁻¹ s⁻¹ | 11.3 nM | 0.00573 s⁻¹ | 508000 M⁻¹ s⁻¹ | 2LIG176 VHH-(His)6 (pHEN6C-PelB-PD-L1 VHH-(His)6) (VHH) VHH: QVQLQESGGGLVQAGGSLRLSCAASESIFSIEAMGWYRQAPGKQRELVAAIFGGGFTNYADSVKGRFTISRDNANRTVYLQMNSLKPEDTAVYYCNADLVSGSSRLYDYWGQGTQVTVSS
6.9 | 1.46 |  |  |  |  |  |  |  | 2PD-106 (VHH, PD-1 VHH) VHH: QVQLQESGGGLVQPGGSLRLSCSASGFSMDYYAIAWFRQAPGKEREEISCITGSDFMVDTYYVASVKGRFTISRDNAKNTAHLQMNSLKPEDTGVYFCAVRSTANTLCPSHYSVMDYWGKGTQVTVSS
4.2 | 0.718 |  |  |  |  |  |  |  | 2PD26 (VHH, PD-1 VHH) VHH: QVQLQESGGGLVQAGGSLRLSCAASGFSMDYYAIAWFRQAPGKEREEISCITGSDFMVDTYYVASVKGRFTISRDNAENTAYLQMNNLKPEDTGVYFCAVRSTANTLCPSHYSVMDYWGKGTQVTVSS
5.23 | 1.34 |  |  |  |  |  |  |  | 2PD90 (VHH, PD-1 VHH) VHH: QVQLQESGGGLVQPGGSLRLSCSASGFSVDYYAIAWFRQAPGKEREEISCITGSDFMVDTYYVASVKGRFTISRDNAKNTAYLQMNSLKPEDTGVYFCAVRSTANTLCPSHYSIMDYWGKGTQVTVSS
 |  | 12.8 ng/mL | 8.77 nM | 0.00419 s⁻¹ | 484000 M⁻¹ s⁻¹ | 5.98 nM | 0.00305 s⁻¹ | 812000 M⁻¹ s⁻¹ | 3LIG8 VHH-(His)6 (pHEN6C-PelB-PD-L1 VHH-(His)6) (VHH) VHH: QVQLQESGGGLVQPGGSLRLSCTASGTIFSINRMDWFRQAPGKQRELVALITSDGTPTYADSAKGRFTISRDNTKKTVSLQMNSLKPEDTAVYYCHVSSGVYNYWGQGTQVTVSS
3.45 | 1.14 |  |  |  |  |  |  |  | 2PD27 (VHH, PD-1 VHH) VHH: QVQLQESGGGSVQPGKSLRLSCAASGRTFSSLGMGWFRQAPGKEREFVSAIAWNGASTYYTESVKGRFTISRDDAKNTVYLQMNSLKPTDTAVYFCAASGLGSVVVTANEYDYWGQGTQVTVSS
3.59 | 2.51 |  |  |  |  |  |  |  | 2PD71 (VHH, PD-1 VHH) VHH: QVQLQESGGGLVQTGESLRLSCAASGGFNRVSYMGWYRQAPGSKRELVASVTSGGEITVADSVKGRFTVSRDNNKNTLYLQMNGLKPEDGATYWCNADIWVSDARMYNYWGQGTQVTVSS
4.38 | 2.97 |  |  |  |  |  |  |  | 2PD82 (VHH, PD-1 VHH) VHH: QVQLQESGGGLVQPGGSLRLSCTTSGFAFGSYDMGWVRQAPGKGPEWVSGINSGGRITDYADSVTGRFTISRDNAKNTLYLQMNSLKPEDTAVYYCAQGDRSSWHYYGMDYWGKGTQVTVSS
 |  | 8.81 ng/mL | 3.03 nM | 0.000524 s⁻¹ | 174000 M⁻¹ s⁻¹ | 3.8 nM | 0.000437 s⁻¹ | 114000 M⁻¹ s⁻¹ | 2LIG189 VHH-(His)6 (pHEN6C-PelB-PD-L1 VHH-(His)6) (VHH) VHH: QVQLQESGGGLVQAGGSLRLSCAASGKIFSGNDMGWYRQAPGKQRELVGIITSGGITDYADAVKGRFTISRDNAKNMMYLQMNSLKPEDTAVYYCNMRDRTIWWGQGTQVTVSS
